We go through 25 sequences from the DeepSol protein solubility set.

The nature of this data set: soluble on expression in E. coli; label from the status in PepcDB or PDB records.
For “MFLNSLDLPGQPENSRIVVAMSGGVDSSVVAGLLKKEGYDVIGITLQLYDHGAATHRVGACCAGQDIEDARCVAETLGIPHYVLDYEERFREAVIDPFAASYAHGETPVPCIACNQTVKFADLLATARELDADALATGHYIRSRSHGAHRALFRPLDSDRDQSYFLFATTQEQIDYLRFPLGDLPKARVREMATEMGFVVANKHDSQDICFVPQGKYSDIITKLRPEAVNPGVIVHVDGQVLGKHSGIVHYTVGQRRGIGVATGEALYVVYLDVENARVIVGPREMLETHKLFLRDVNWLGDERLDNFPPDGIEMAVKVRSTRPPHLARLHYQEGVFSVDFLECENSVAPGQACVFYDGNSDGARVLGGGFVTHSERAAETEMMLKRVLCNLETTSAVASEFKTKVSYT”, the “soluble on expression in E. coli” value is given as “not soluble”. The same measure for “MFLTKVSLLDHPESLPGYLSSLAIVEYLHEQPLEFRAPITVITGENGVGKSTLVEALAVGMRLNPSGGSRHANFGREGDIVSSLHQSLKLVRRENPRDAFFFRGETMYNVASYYEELMGEKNMHDLHKMSHGESVFAVIDRRFNNQGFFVLDEPEAGLSMLRQLELLGKLGNLARGGAQIIMATHSPILLAIPGAEILEITSSGVAKVNFEDAEAVRAAREFVADPRGTAAFLTAEEDHQ”: “soluble”; for “MFPIGEQPRILKDLAGINEDVQELAISGKTKNIELLGELKIRDLWIFTVNQTQFDKIMEYVNPEILYIDEMRVENLSKLQKMSNLRRLYLGWNPKNTDLWDLSYNNNLSYLLIQAFSKLEDLSPIKDGKKLEGLFLGGAIMKTLNVKTLDPIGDLVELNELTLMNIKVQDRSLEPLMNLKRLKKLNVSNQFPMEEYAKLSVVLQNTECEFFKPYVRMESTEGKDIMMIGRKRPFLNSKIDAEKIRKYEQEFKTVQEEFRDGMK”: “not soluble”; for “MFPLFPNPQTRRTMSVLSEQVDGRPPQPPSGRRGKRWLRAIAAGALLAAGGGASTQPVAQQAPQSHARKVKVLIISMFAPEAQPWIDKLGLTQAVPVPGLSIDYPSVHCNASDVCQLTTGMGKANAASSVSALIHSGQFDLSRAYFLVAGIAGIDPSQGTLGTAAWARYLVDSDLAWEIDAREVPADWPNGFIGINTQGPGQKPPLNYKTEIFRVNEALLQKALALSKGAVLDDNATARAYRANYPSAPANQPPAVVQCDTAAGNTYWHGALLGQREAAWVKLLTDGQGTYCTTQQEDNATFEALTRGSKAGLLDLQRVAVLRTASNFDRPYPGQTPYDSLVGSNSGGFVPSLNNLYLAGGPLVNDIVTRWSVWKHGVPSPLEHHHHHH”: “not soluble”. For “MFPSFLRRTAAKNGSYANEISSSIIINRPAERLFDLWRKPETLPILMGHFASIEILNHTDSNWRINTPIGSLIEWQARIIDEKPGEYIHWRSLEGARVPNEGRLSFQPAASEAGTAVTLTIRYNPPGGLIGKKIGQMFDMFSRDMLTKTLYRFKKLAEDERVLEHHHHHH” the value was “not soluble”.

With “MFRMLNSSFEDDPFFSESILAHRENMRQMIRSFSEPFGRDLLSISDGRGRAHNRRGHNDGEDSLTHTDVSSFQTMDQMVSNMRNYMQKLERNFGQLSVDPNGHSFCSSSVMTYSKIGDEPPKVFQASTQTRRAPGGIKETRKAMRDSDSGLEKMAIGHHIHDRAHVIKKSKNKKTGDEEVNQEFINMNESDAHAFDEEWQSEVLKYKPGRHNLGNTRMRSVGHENPGSRELKRREKPQQSPAIEHGRRSNVLGDKLHIKGSSVKSNKKLEHHHHHH”, the “soluble on expression in E. coli” value is “soluble”. In the case of “MFRRIFDAFNFMGSDEESTAAPVDQEGQEQLIDEDGWVNFNHPTESGDSDEFAFIENPEILEMGDETTIEVEMRTTPCPEVEAIKRREEYNLAKAKTAFRNHLESVMFADPDSGKDVRTFKSTHGSGRSVPTASGSIRRLNTQSQRSKKSSGKSNDRKTHRVSDLQLADA”, the “soluble on expression in E. coli” value is given as “not soluble”.

“MFSAKKLSPADKLKNISSMLEEIVEDTTVPRNIRAAADNAKNALHNEEQELIVRSATAIQYLDDISEDPNMPIHTRTQIWGIVSELETIK”: the “soluble on expression in E. coli” value is “soluble”. For “MFSEKFFTASFGPDDEQPAIKAAANNAAPIFHLFILEFLLFKYQLLSKDSEYPYLLIRAGDNNRPKKAERRDKASKMWSRNQEKHGSKKSEKSNQNKNFYVREFFSFGASSKKFPNHVFRDVF” the value was “not soluble”; for “MFSGHQLKTARLSKGITQSELGRLLHVNKMTISNWEKGKNIPNEKHLNALLHLFNVTSDYFDPNYRLLTPYNQLTISNKEKVIGYSERLLNHQIDKKSKDLIDKPSQLYAYRVYESLSAGTGYSYFGDGNFDVVFYDEQLEYDFASWVFGDSMEPTYLNGEVVLIKQNSFDYDGAIYAVEWDGQTYIKKVFREDEGLRLVSLNKKYSDKFAPYSEEPRIIGKIIANFRPLEI”, “not soluble”; for “MFSIQQPLLVFSDLDGTLLDSHSYDWQPAAPWLTRLREANVPVILCSSKTSAEMLYLQKTLGLQGLPLIAENGAVIQLAEQWQEIDGFPRIISGISHGEISLVLNTLREKEHFKFTTFDDVDDATIAEWTGLSRSQAALTQLHEASVTLIWRDSDERMAQFTARLNELGLQFMQGARFWHVLDASAGKDQAANWIIATYQQLSGKRPTTLGLGDGPNDAPLLEVMDYAVIVKGLNREGVHLHDEDPARVWRTQREGPEGWREGLDHFFSAR”, “soluble”. The same measure for “MFSKTVVVLLMVVPAISLAQPASPLVLKKSHGAFCHLCEDLIKDGKEAGDVALDVWLDEEIGSRCKDFGVLASECFKELKVAEHDIWEAIDQEIPEDKTCKEAKLC”: “not soluble”. For “MFSPLGQFKHIVCPFLRTGRKCQSRNCFFSHDFQNSTKISPPYSENVEGYPKVKIEKSLPYKYDNCKLSICVPIVTTCIPYHSVENLNFNIRQNISTTLNLEKTNDSIKETKNENFRMDVLETYKCKQLNHQTTHLPTNTVLKKRSLFNDAISIVPNKKKQLVSAISTNSDSQGASSNIIPTPKYDSNSPAGHELRKRMTHLLYESYKDLGYSNAESSMLALLDEKNICETANSKMIYSSSCKSKILSLKKAPKKNEIQGSTPDEKLESLVHSEEELILWGYNIGDVAPVNPPDELRECDRCGTRFADPRGPCTYHWGKLFREKQGGEKIRTYTCCGVKEGDSSGCIIEDNHVFKYRHLPYLASVHPFSYLPDSTNSKQLSHCALDCELCYTTNGMELARLTVVAKESIIMDVFIKPKGKILSLNTRFSGIHDAKELESGITMDQMYIKIKELGMNKNTILIGHGLENDLNAMRLIHKRVIDTALLFTHARGPPFRYSLKYLTKKYLGTTIQTSTHDSEEDAVSALQLVFYKTKSNESQN” the value was “soluble”; for “MFTGFGAASFSAPAKAAAQTNTLSENTNQSAAELVKNLYNTAYKGEMPQQAQGLTINKSTKGDVHAAFGEPERPVGGDNRFDLYHWNMGQPGYGFSYHKDMTISEIRYFGTGVERQLNLGGVTPEVLQKQLGPVNRVLTVPFTDEIDYVYDTGRYELHFVIGTDQTADHVNLKAKLEHHHHHH”, “soluble”; for “MFYKFLLFDLDHTLLDFDAAEDVALTQLLKEEGVADIQAYKDYYVPMNKALWKDLELKKISKQELVNTRFSRLFAHFGQEKDGSFLAQRYQFYLAQQGQTLSGAHDLLDSLIERDYNLYAATNGITAIQTGRLAQSGLAPYFNQVFISEQLQTQKPDALFYEKIGQQIAGFSKEKTLMIGDSLTADIQGGNNAGIDTIWYNPHHLENHTQAQPTYEVYSYQDLLDCLDKNILEKITF”, “not soluble”. Regarding “MGAAKASLGRIFPESSILFLCDMQEKLRDRILYFPQIVSMAARMLKVAQMLEIPVLLTEHYPQGLGPTVPELGAQGLRTMSKTSFSMVPPLQQELDKLPQLQSVLLRGIETQGCILHTALDLLDRGLQVHVAVDACSSQSEMNRLVALARMQQSGVFLSTSEVLILQLVKDAAHPQFKEIQKILKEPVTDIGLLGFFQGKKNSLLPNSRT”, the “soluble on expression in E. coli” value is reported as “not soluble”.

Regarding “MGAIKVEIKSGALLISPSEFKERYLPTLQDMPVLAFVRNIEAPKSWYSYLISNIEDQKSSIFPTNLPRILEISRRYFSSVKNGIVVIDALEYLTIYNGFEAIAKFLATLRDFAILDNGTVIIITEKKAWKDREWALLTSLLGKLEHHHHHH”, the “soluble on expression in E. coli” value was “not soluble”. For “MGARVTRALRNFNVEKRAEREISKRKPSMAPKHPSTRDLLQEHRSQYPEIEEVVSKKDNKLLSLLRDVYVDSKDPVPALPVKVEPRQEPKEFRLPIGNHFDKNITDIPKGKITVVEALTLLNNHKLSPETWTAEKIAQEYYLELKDVNSLLKYFVTFEVKILPPEDRKAIQSK” the value was “soluble”; for “MGCLLFLLLWALLQAWGSAEVPQRLFPLRCLQISSFANSSWTRTDGLAWLGELQTHSWSNDSDTVRSLKPWSQGTFSDQQWETLQHIFRVYRSSFTRDVKEFAKMLRLSYPLELQVSAGCEVHPGNASNNFFHVAFQGKDILSFQGTSWEPTQEAPLWVNLAIQVLNQDKWTRETVQWLLNGTCPQFVSGLLESGKSELKKQVKPKAWLSRGPSPGPGRLLLVCHVSGFYPKPVWVKWMRGEQEQQGTQPGDILPNADETWYLRATLDVVAGEAAGLSCRVKHSSLEGQDIVL”, “soluble”. As to “MGDASTQLSSYVKQVQTGHKPSTKEIVRFSKLFEDQLALEHLDRPQLVALCKLLELQTFGTNNLLRFQLLMKLKSIKADDEIIAKEGVTALSVSELQAACRARGMRSLGLTEEQLRQQLTEWQDLHLKENVPPSLLLLSRTFYLIDVKPKPIEIPLSGEAPKTDILVELPTFTESKENMVDLAPQLKGTKDEDFIQPPPVTSSPITPSTPISLPKGPITSSEEPTLQAKSQMTAQNSKASSKGA”, the “soluble on expression in E. coli” value is listed as “soluble”. With “MGDFREVLFYHSETKHYPYRFARSLGYLDWENQPNPFRFWEGTERLDLPLLKDPSHPYEALYDYGLVNTEEFNVKSLSKFLELALGLSAWKAIPGSRWSVRMNPSSGNLHPTECYVIIPHLGGLQGVFHYNPFLHALEKRADIPYELSQKIKDFFGTEGFILILTSIPWRESWKYGERAYRYCLLDTGHAIGSVRFSANLKGWKVKYLNALSDKDLEILLGFDRVQWVEGEEEFPELALFVFPKEVQDVPRTIPESIINEFKKLNFYGRPNVLSKERVIWEIIYRAIKETEKPRTEEFRVIYGNPPILNLVPSYMSAEEVIRKRRSGMAYDGKTYILRELFIHALDKTLPRDNYSPFDVEIGLPFVNLFIFVNRVENLPKGLYCFVRNEELLKDLKEITSSEFLWEKVFEDFPLYLLKTGDFREVAGFVACAQDIASDSAFSLGMISLFEPVLREEPWFYRNLHWEAGLIGQVLYLEATAHNLNGTGIGCFFDDAMHEVLGISDKTFQDLYHFTFGKAVEDPRIQTIEPYYHLKRERR”, the “soluble on expression in E. coli” value is listed as “not soluble”. For “MGEAYAEVFPDPDGISGHVKGVVDINAPPEKVWRIMTDCAAAKVMITTLAVCRIVEGDMARGWDIREHVTRRNLVFPGLRIVFRSDYEPYSRIKFKLVGGDLKVEQGEWKLQALDGGRRTRVLYDNRLAVDWPVPKALIREALRKDTPKVLMNLKRLCELEHHHHHH” the value was “not soluble”; for “MGEISLGEVFHLKSGKYLKADERFEDGKFPYYGAGIESTSFVNEPNTKGDTLSMIANGYSIGNIRYHTIPWFNGTGGIAMEALKPNKTYVPFFYCALKYMQKDLKERFKRDESPFISLKLAGEIKVPFVKSFALQRKAGKIIYLLDK”, “not soluble”; for “MGEVVKLVTFLGLGKYEESEIKINGNLLDGCVKNDDSQDIFCVRQSIFPLALIEYLNHIGKQVETIFFLTKTVKESKTWDECRRFLRSNIKDFEIPERRIFK”, “not soluble”.

As for “MGEYYHATVNGVVEYGAFVDLSEHVSGLIHESTYSGDPDLAVDDDVIVHLSAVRDNGDLSFEFVDPEEYRTEQRSHAYERTTADAVGLEHHHHHH”, the “soluble on expression in E. coli” value is listed as “soluble”.
